{"source": "patent US7854918B2", "about": "“Composition for medical use having improved water-solubility of peptide and metal-labeling efficiency and preparation for medical use comprising metal-labeled peptide” (Nihon Medi-Physics Co., Ltd., priority 2004, dated 2010)", "key": {"[1]": {"assay": "Tc-99m labeling at room temperature, radiochemical purity by TLC", "type": "physicochemical", "experimental": "Peptide 1 was dissolved in the aqueous solution of arginine with pH 10 obtained in Example 2 to prepare 9.4 μM peptide/arginine solution. 25 μL of a solution of 10 mL of 0.01 M hydrochloric acid supplemented with 5 mg of stannous chloride solution was added to 700 μL of the peptide/arginine solution, and 0.6 to 1.0 GBq of Tc-99m-sodium pertechnetate (hereinafter, 99 mTcO4^−) solution was quickly added thereto to adjust the total amount to 1 mL. After the labeling procedure, the peptide concentration was diluted to 6.6 μM. After shaking for several seconds, the solution was reacted at room temperature. A portion thereof was taken on 10 minutes and 90 minutes after the labeling procedure to determine each Tc-99m labeling rate by HPLC and TLC. The HPLC and TLC analyses were performed under conditions described below.\nFor comparative controls, Peptide 1 was dissolved in dimethylsulfoxide (DMSO) and then diluted 10-fold with 100 mM phosphate buffer solution (hereinafter, PB) with pH 10 to prepare a peptide/DMSO/PB solution with the final peptide concentration of 9.4 μM. Alternatively, Peptide 1 was dissolved in PB to prepare a peptide/PB solution with the final peptide concentration of 9.4 μM. These solutions were labeled in the same way as in the peptide/arginine solution to determine each Tc-99m labeling rate by HPLC and TLC. After the labeling procedure, the peptide concentration was diluted to 6.6 μM.\nPlate: Silica Gel 60F254 (manufactured by Merck)\nDeveloping solvent: 28% ammonia water/acetonitrile=½\nRadioactivity detector: Gita NaI scintillator (manufactured by Raytest)\n12.5, 25, and 50 mg of arginine was weighed, then dissolved in water, and adjusted with hydrochloric acid to pH 10 to adjust each total amount to 700 μL. Molarities in these solutions are 102.5 mM, 205 mM, and 410 mM, respectively. Peptide 1 was dissolved in these aqueous solutions of arginine to prepare respective 9.4 μM peptide/arginine solutions. 25 μL of a solution of 10 mL of 0.01 M hydrochloric acid supplemented with 5 mg of stannous chloride solution was added to each of the peptide/arginine solutions, and 0.6 to 1.0 GBq of 99 mTcO4^− solution was quickly added thereto to adjust each total amount to 1 mL. After shaking for several seconds, the solutions were reacted at room temperature. A portion thereof was taken on 30 minutes, 90 minutes, 180 minutes, 360 minutes, 24 hours, and 30 hours after the labeling procedure to determine each radiochemical purity by TLC analysis under the conditions described in Example 5."}, "[2]": {"assay": "External observation of peptide sample solutions (presence or absence of white turbidity)", "type": "physicochemical", "experimental": "Peptide 1, Peptide 2, and Peptide 3 (100 μg each) were separately added to 410 mM arginine solutions (pH 11) to adjust each total amount to 700 μL. Molarities in these solutions are 94 μM (Peptide 1), 99 μM (Peptide 2), and 161 μM (Peptide 3). […] Then, 200 μL each of the sample solutions was filtered with a filter Millex (registered trademark)-GV (trade name, manufactured by Nihon Millipore) with a pore size of 0.22 μm. The sample solutions before filtration and the sample solutions after filtration were respectively analyzed by reverse-phase HPLC. Peak area percentages were determined from the peak area values of the peptides before and after filtration and used as elution rates. HPLC analytical conditions are shown below.\nFor a comparative example, Peptide 1, Peptide 2, and Peptide 3 were separately dissolved in each of water and dimethylsulfoxide (DMSO) to prepare samples having a peptide concentration of 94 μM, 99 μM, or 161 μM, which were studied in the same way as above.\nArginine, lysine, and histidine were separately dissolved in water to prepare 410 mM arginine solution, 489 mM lysine solution, and 90 mM histidine solution. An aqueous solution of sodium hydroxide and hydrochloric acid were added to these solutions to adjust the pH of the aqueous solutions of lysine and histidine to 8, 9, 10, and 11, and the pH of the aqueous solution of arginine to 8, 8.5, 9, 9.5, 10, and 11. Subsequently, Peptide 1 was added to these aqueous solutions to prepare 94 μM Peptide 1 solutions. […] Then, 200 μL each of the sample solutions was filtered with a filter Millex (registered trademark)-GV (trade name, manufactured by Nihon Millipore) with a pore size of 0.22 μm. The sample solutions before filtration and the sample solutions after filtration were respectively analyzed by reverse-phase HPLC. Peak area percentages were determined from the peak area values of Peptide 1 before and after filtration and used as elution rates. HPLC analytical conditions were the same as the conditions described in Example 1.\nImidazole was dissolved in water to prepare 1 mM imidazole solution. pH was adjusted to 8, 8.5, and 9 by adding an appropriate amount of hydrochloric acid to this solution. Subsequently, Peptide 1 was added to these imidazole solutions to prepare 94 μM Peptide 1 solutions. […] Then, 200 μL each of the sample solutions was filtered with a filter Millex (registered trademark)-GV (trade name, manufactured by Nihon Millipore) with a pore size of 0.22 μm. The sample solutions before filtration and the sample solutions after filtration were respectively analyzed by reverse-phase HPLC. Peak area percentages were determined from the peak area values of Peptide 1 before and after filtration and used as elution rates. HPLC analytical conditions were the same as the conditions described in Example 1.\nDisodium hydrogen phosphate, sodium dihydrogen citrate, sodium ascorbate, and imidazole were separately dissolved in water to prepare their respective aqueous solutions with pH 9 at concentrations described in Table 4. pH adjustment was performed with hydrochloric acid and an aqueous solution of sodium hydroxide. The above-described aqueous solutions were separately added to the weighed Peptide 1 to prepare 94 μM Peptide 1 solutions. […] These Peptide 1 solutions were compared with the Peptide 1 sample solutions using the respective aqueous solutions of disodium hydrogen phosphate, sodium dihydrogen citrate, and sodium ascorbate used as comparative controls. Subsequently, 200 μL each of the sample solutions was filtered with a filter Millex (registered trademark)-GV (trade name, manufactured by Nihon Millipore) with a pore size of 0.22 μm. The sample solutions before filtration and the sample solutions after filtration were respectively analyzed by reverse-phase HPLC. […]"}}, "note": "Entries after “also recorded” stand apart in the source; their conditions may differ. Square brackets hold non-standard residues; d marks the D form. Ends that are not written are not given here. * marks the point of attachment. Nle = CCCC[C@H](N)C(=O)O; For = O=C*", "data": [{"substance": "formyl-Nle-Leu-Phe-Nle-Tyr-Lys(NH2)-ε(-Ser-D-Arg-Asp-Cys-Asp-Asp) (For-[Nle]LF[Nle]YKS[dR]DCDD; also: Lys(NH2): Lys α-carboxamide, Ser-D-Arg-Asp-Cys-Asp-Asp branch on Lys ε-amine) [Peptide 1]", "values": [{"measurement": "Radiochemical purity (TLC)", "setting": "[1]; 102.5 mM arginine pH 10, 30 minutes after labeling", "result": 93.3, "unit": "%"}, {"measurement": "Radiochemical purity (TLC)", "setting": "[1]; 102.5 mM arginine pH 10, 90 minutes after labeling", "result": 92.6, "unit": "%"}, {"measurement": "Radiochemical purity (TLC)", "setting": "[1]; 102.5 mM arginine pH 10, 180 minutes after labeling", "result": 92.6, "unit": "%"}, {"measurement": "Radiochemical purity (TLC)", "setting": "[1]; 102.5 mM arginine pH 10, 360 minutes after labeling", "result": 91.2, "unit": "%"}, {"measurement": "Radiochemical purity (TLC)", "setting": "[1]; 102.5 mM arginine pH 10, 24 hours after labeling", "result": 88.9, "unit": "%"}, {"measurement": "Radiochemical purity (TLC)", "setting": "[1]; 102.5 mM arginine pH 10, 30 hours after labeling", "result": 89.8, "unit": "%"}, {"measurement": "Radiochemical purity (TLC)", "setting": "[1]; 205 mM arginine pH 10, 30 minutes after labeling", "result": 92.0, "unit": "%"}, {"measurement": "Radiochemical purity (TLC)", "setting": "[1]; 205 mM arginine pH 10, 90 minutes after labeling", "result": 90.8, "unit": "%"}, {"measurement": "Radiochemical purity (TLC)", "setting": "[1]; 205 mM arginine pH 10, 180 minutes after labeling", "result": 89.7, "unit": "%"}, {"measurement": "Radiochemical purity (TLC)", "setting": "[1]; 205 mM arginine pH 10, 360 minutes after labeling", "result": 89.7, "unit": "%"}, {"measurement": "Radiochemical purity (TLC)", "setting": "[1]; 205 mM arginine pH 10, 24 hours after labeling", "result": 88.3, "unit": "%"}, {"measurement": "Radiochemical purity (TLC)", "setting": "[1]; 205 mM arginine pH 10, 30 hours after labeling", "result": 87.3, "unit": "%"}, {"measurement": "Radiochemical purity (TLC)", "setting": "[1]; 410 mM arginine pH 10 (Example 6), 30 minutes after labeling", "result": 91.6, "unit": "%"}, {"measurement": "Radiochemical purity (TLC)", "setting": "[1]; 410 mM arginine pH 10 (Example 6), 90 minutes after labeling", "result": 89.5, "unit": "%"}, {"measurement": "Radiochemical purity (TLC)", "setting": "[1]; 410 mM arginine pH 10 (Example 6), 180 minutes after labeling", "result": 87.1, "unit": "%"}, {"measurement": "Radiochemical purity (TLC)", "setting": "[1]; 410 mM arginine pH 10 (Example 6), 360 minutes after labeling", "result": 85.7, "unit": "%"}, {"measurement": "Radiochemical purity (TLC)", "setting": "[1]; 410 mM arginine pH 10 (Example 6), 24 hours after labeling", "result": 86.5, "unit": "%"}, {"measurement": "Radiochemical purity (TLC)", "setting": "[1]; 410 mM arginine pH 10 (Example 6), 30 hours after labeling", "result": 84.9, "unit": "%"}, {"measurement": "Radiochemical purity (TLC)", "setting": "[1]; Tc-99m labeling in DMSO/phosphate buffer solution pH 10, room temperature, 10 minutes", "result": 45.7, "unit": "%"}, {"measurement": "Radiochemical purity (TLC)", "setting": "[1]; Tc-99m labeling in DMSO/phosphate buffer solution pH 10, room temperature, 90 minutes", "result": 41.9, "unit": "%"}, {"measurement": "Radiochemical purity (TLC)", "setting": "[1]; Tc-99m labeling in phosphate buffer solution pH 10, room temperature, 10 minutes", "result": 28.0, "unit": "%"}, {"measurement": "Radiochemical purity (TLC)", "setting": "[1]; Tc-99m labeling in phosphate buffer solution pH 10, room temperature, 90 minutes", "result": 33.6, "unit": "%"}, {"measurement": "Appearance", "setting": "[2]; 1 mM imidazole, pH 8, 94 μM peptide", "result": "colorless and transparent"}, {"measurement": "Appearance", "setting": "[2]; 1 mM imidazole, pH 8.5, 94 μM peptide", "result": "colorless and transparent"}, {"measurement": "Appearance", "setting": "[2]; 1 mM imidazole, pH 9, 94 μM peptide", "result": "colorless and transparent"}, {"measurement": "Appearance", "setting": "[2]; 90 mM histidine, pH 9, 94 μM peptide", "result": "colorless, transparent"}, {"measurement": "Appearance", "setting": "[2]; 100 mM disodium hydrogen phosphate, pH 9, 94 μM peptide", "result": "colorless, transparent"}, {"measurement": "Appearance", "setting": "[2]; 243 mM sodium dihydrogen citrate, pH 9, 94 μM peptide", "result": "white turbidity; also recorded: Whitish"}, {"measurement": "Appearance", "setting": "[2]; 401 mM sodium ascorbate, pH 9, 94 μM peptide", "result": "white turbidity; also recorded: Whitish"}, {"measurement": "Appearance", "setting": "[2]; 410 mM arginine solution, pH 11, peptide 94/99/161 μM", "result": "Colorless,"}, {"measurement": "Appearance", "setting": "[2]; 410 mM arginine, pH 8, 94 μM peptide", "result": "Evident white turbidity"}, {"measurement": "Appearance", "setting": "[2]; 410 mM arginine, pH 9, 94 μM peptide", "result": "colorless, transparent"}, {"measurement": "Appearance", "setting": "[2]; 489 mM lysine, pH 9, 94 μM peptide", "result": "colorless, transparent"}, {"measurement": "Appearance", "setting": "[2]; aqueous solutions of arginine, lysine and histidine at pH 8.5 or less", "result": "Weak white turbidity"}, {"measurement": "Appearance", "setting": "[2]; aqueous solutions of arginine, lysine and histidine at pH 9 or more", "result": "colorless, transparent"}, {"measurement": "Appearance", "setting": "[2]; solvent DMSO, peptide 94/99/161 μM", "result": "Colorless,"}, {"measurement": "Appearance", "setting": "[2]; solvent water, peptide 94 μM (Peptide 1), 99 μM (Peptide 2), 161 μM (Peptide 3)", "result": "Whitish"}]}]}
